Laboratory results taken from patent US20140212406.

Biological target: plasminogen

B1: rat single-chain tPA with arginine to serine point mutation at position 276 (R276S), 6xHis-tagged (protein)
chain: HHHHHHSYRATCRDEQTQTTYQQHQSWLRPMLRGNRVEYCRCNSGLAQCHSVPVRSCSEPRCFNGGTCQQALYFSDFVCQCPDGFVGKRCDIDTRATCFEGQGITYRGTWSTAENGAECINWNSSALSQKPYSARRPNAIKLGLGNHNYCRNPDRDVRPWCYVFKAGKYTTEFCSTPACPKGPTEDCYVGKGVTYRGTHSFTTSKASCLPWNSMILIGKTYTAWRANSQALGLGRHNYCRNPDGDAKPWCHVMKDRKLTWEYCDMSPCSTCGLRQYKQPLFSIKGGLFTDITSHPWQAAIFVKNKRSPGERFLCGGVLISSCWVLSAAHCFVERFPPHHLKVVLGRTYRVVPGEEEQTFEIEKYIVHKEFDDDTYDNDIALLQLRSDSSQCAQESSSVGTACLPDPDVQLPDWTECELSGYGKHEASSPFFSDRLKEAHVRLYPSSRCTSQHLFNKTITSNMLCAGDTRTGGNQDVHDACQGDSGGPLVCMIDKRMTLLGIISWGLGCGQKDVPGIYTKVTNYLNWIQDNMKQ
conversion of plasminogen into plasmin (fibrin agarose zymography; PPP-clot lysis): Whereas sc*-tPA is not able to promote alone the conversion of plasminogen into plasmin, its fibrin cofactor partially brings back its plasminogen activation function
